Results on 1 protein are retold here after PMC10876309, “Two Main Cancer Biomarkers as Molecular Targets of Binase Antitumor Activity” (BioMed Research International, 2024).

The data set deals with the molecule itself. Kind of data set: SDS-PAGE and western blot; binase in the immunoprecipitated samples, blotted with anti-binase antibodies; bands of 12 kDa and 25 kDa. For orientation: Immunoblotting shows a protein as a band on a membrane.

B1: binase, ribonuclease from Bacillus pumilus (enzyme, UniProt P00649 54-162, looked up)
chain: AVINTFDGVADYLIRYKRLPDNYITKSQASALGWVASKGNLAEVAPGKSIGGDVFSNREGRLPSASGRTWREADINYVSGFRNADRLVYSSDWLIYKTTDHYATFTRIR
notes: binase, ribonuclease of Bacillus pumilus, 12.3 kDa, pI 9.5; also called bacterial ribonuclease binase; cytotoxic ribonuclease from Bacillus pumilus; source: purified as described earlier [21, 22]
On to B1, for which the binding result is on record as “binds”.
